# Measured values: article PMC11681868, “Unveiling the structural mechanisms behind high affinity and selectivity in phosphorylated epitope-specific rabbit antibodies” (The Journal of Biological Chemistry, 2024)
# T1: Akt peptide (synthetic peptide; letters match human …)
# T1 construct: Akt peptide around 473-Ser, not phosphorylated; also called non-phosphorylated antigen; non-phosphorylated peptide; source: synthetic peptide (SCRUM Inc.)
# T1 chain: RPHFPQFSYSAS
# B1: rabbit antibody A4 scFv (wild type) (scFv, V domains shown)
# VH: QEQLMESGGRLVTPGTPLTLTCTASGSDISTYSISWVRQAPGKGLEWIGHIGSSGTQYYASWAKGRFAISRASTTVDLRITGPTTEDTATYFCARRGVGYNLYYNMWGPGTLVTVSL
# VL: AIDMTQTPSPVSAAVGGTVTINCQASQSVYNSKNLAWYQQKPGQPPKLLIYDSSTLASGVSSRFRGSGSGTQFTLTISGVQSDDAATYYCQGEFSCSSGDCAGFGGGTEVVVE
# notes: VH of rabbit antibody A4; they are in PDB 8JOW (A4 scFv); GS linker of the scFv; PDB 8JOW may hold them; VL (kappa) of rabbit antibody A4; they are in PDB 8JOW; the deposited construct should already hold Ser at L80 (Chothia); Antibody numbering is Chothia; also called A4 WT; source: E. coli BL21(DE3), purified (Ni-NTA, SEC)
# Target: T1, Akt peptide
# Test: ITC; iTC200; 5 μM scFv in the cell, 50 μM peptide in the syringe; samples dialyzed against PBS; triplicate
# Conditions: both partners purified
binder,measurement,value
B1,Kd,1120 nM
